From article PMC9064986, “Crystal structures of BMPRII extracellular domain in binary and ternary receptor complexes with BMP10” (Nature Communications, 2022) come the findings set out here.

To fix the notation:
T1: BMPRII ECD N126S (human, UniProt Q13873-1 27-150, N126S)
T1 construct: BMPRII (BMPR2) extracellular domain, human, amino acids 27-150 of the cDNA NM_001204; mutation found in PAH patients; source: E. coli Rosetta DE3, periplasm, purified (HisTrap, TEV cleavage, Superdex 75); not shown: DsbA, N-terminal, cleaved; His6, N-terminal, cleaved
T1 sequence (looked up): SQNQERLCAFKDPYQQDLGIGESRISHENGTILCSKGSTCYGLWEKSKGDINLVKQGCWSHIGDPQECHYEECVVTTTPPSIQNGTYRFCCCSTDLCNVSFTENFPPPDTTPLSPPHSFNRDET

T2: BMPRII ECD E98K (human, UniProt Q13873-1 27-150, E98K)
T2 construct: BMPRII (BMPR2) extracellular domain, human, amino acids 27-150 of the cDNA NM_001204; mutation found in PAH patients; source: E. coli Rosetta DE3, periplasm, purified (HisTrap, TEV cleavage, Superdex 75); not shown: DsbA, N-terminal, cleaved; His6, N-terminal, cleaved
T2 sequence (looked up): T1 sequence (looked up) with E72K, S100N

T3: BMPRII ECD Q92H (human, UniProt Q13873-1 27-150, Q92H)
T3 construct: BMPRII (BMPR2) extracellular domain, human, amino acids 27-150 of the cDNA NM_001204; mutation found in PAH patients; source: E. coli Rosetta DE3, periplasm, purified (HisTrap, TEV cleavage, Superdex 75); not shown: DsbA, N-terminal, cleaved; His6, N-terminal, cleaved
T3 sequence (looked up): T1 sequence (looked up) with Q66H, S100N

T4: BMPRII-Fc (R&D Systems) (UniProt Q13873 27-150)
T4 construct: BMPRII part of the bought Fc fusion; source: bought: R&D Systems (cat. No. 811-BR)
T4 sequence (looked up): T1 sequence (looked up) with S100N

B1: BMP10 growth factor (GF)-domain from Pro:BMP10 made in HEK EBNA cells (ligand, human, UniProt O95393 317-424, looked up)
chain: NAKGNYCKRTPLYIDFKEIGWDSWIIAPPGYEAYECRGVCNYPLAEHLTPTKHAIIQALVHLKNSQKASKACCVPTKLEPISILYLDKGVVTYKFKYEGMAVSECGCR
notes: growth factor (GF) domain of human BMP10, cut by furin from the product of the full-length open reading frame (NM_014482); also called BMP10 GF-domain; source: HEK EBNA, full-length BMP10 cDNA co-transfected with FURIN, purified from conditioned medium as Pro:BMP10
B2: BMPRII ECD G89A (domain or fragment, human, UniProt Q13873-1 27-150, looked up)
chain: T1 sequence (looked up) with G63A, S100N
notes: BMPRII (BMPR2) extracellular domain, human, amino acids 27-150 of the cDNA NM_001204; source: E. coli Rosetta DE3, periplasm, purified (HisTrap, TEV cleavage, Superdex 75); not shown: DsbA, N-terminal, cleaved; His6, N-terminal, cleaved
B3: BMPRII ECD G89E (domain or fragment, human, UniProt Q13873-1 27-150, looked up)
chain: T1 sequence (looked up) with G63E, S100N
notes: as for B2
B4: BMPRII ECD G89W (domain or fragment, human, UniProt Q13873-1 27-150, looked up)
chain: T1 sequence (looked up) with G63W, S100N
notes: as for B2
B5: Recombinant human BMP10 growth factor (GF)-domain (R&D Systems) (ligand, UniProt O95393 317-424, looked up)
chain: B1 chain
notes: growth factor (GF) domain of human BMP10, the cut product of the BMP10 precursor; also called BMP10 GF-domain; source: bought: R&D Systems (cat. No. 2926-BP-025/CF)
B6: BMPRII ECD S107P (domain or fragment, human, UniProt Q13873-1 27-150, looked up)
chain: T1 sequence (looked up) with S81P, S100N
notes: BMPRII (BMPR2) extracellular domain, human, amino acids 27-150 of the cDNA NM_001204; mutation found in PAH patients; source: E. coli Rosetta DE3, periplasm, purified (HisTrap, TEV cleavage, Superdex 75); not shown: DsbA, N-terminal, cleaved; His6, N-terminal, cleaved

Data set [1] concerns the molecule itself. The data set can be described thus: crystal structure; BMP10:BMPRII ECD binary complex, two crystal forms (P212121, 1.48 Å; C2, 2.40 Å); complex refolded from denatured BMP10 GF-domain with excess BMPRII ECD.
Data set [2] concerns the target T1, BMPRII ECD N126S. The data set can be described thus: native gel or EMSA; prodomain displacement: Pro:BMP10 premixed with BMPRII WT or mutant ECDs at 1:2 and 1:5 molar ratio, 20 mM Tris, 150 mM NaCl, pH 7.4, 30 min at room temperature, 12% native PAGE, Coomassie, densitometry of Pro:BMP10/prodomain. To be noted: both partners purified.
The target in data set [3] is T2, BMPRII ECD E98K. The description is as above. As to conditions: both partners purified.
For data set [4], the target named is B5. The data set can be described thus: SPR; Biacore T200; BMP10 GF-domain amine-coupled to a CM5 chip (1300 RU); ALK1-Fc, BMPRII-Fc or monomeric BMPRII WT and mutant ECDs injected at 40 ul/min; 10 mM HEPES pH 7.4, 150 mM NaCl, 3.4 mM EDTA, 0.5 mg/ml BSA, 0.005% P20, 25 °C; 1:1 model, KD = kd/ka. As to conditions: both partners purified.
Data set [5] deals with T1, BMPRII ECD N126S. Described as above. To be noted: both partners purified.
Data set [6] addresses T2, BMPRII ECD E98K. The description is as above. To be noted: both partners purified.
For data set [7], the target named is T3, BMPRII ECD Q92H. The description is as above. To be noted: both partners purified.
Data set [8] deals with T4, BMPRII-Fc (R&D Systems). The data set can be described thus: SPR; BMP10 flowed over a BMPRII-Fc surface, with ALK1 present (Supplementary Fig 5c). As to conditions: both partners purified.

Substitutions are numbered along the chain they refer to.

Consider B1, for which the binding result in data set [1], in data set [2] and in data set [3] was “binds” each time.

For the molecule B2, in data set [4], the “fold reduction in affinity against WT BMPRII ECD” value (“fold reduction in affinity” for short) was less than 2 fold.

On to B3, for which the “fold reduction in affinity” value in data set [4] was more than 100 fold.

As for B4, the “fold reduction in affinity” value in data set [4] is more than 100 fold.

Turning to B5, the binding result in data set [5], in data set [6] and in data set [7] was “binds” each time. Besides, in data set [8], the “fold weaker affinity with ALK1 present than without ALK1” value is approximately 5 fold.

As to B6, the “fold tighter binding than WT BMPRII ECD” value in data set [4] is approximately 4 fold.
